Test results reported in the supplement of paper PMC9112550, “Optimization of the antimicrobial peptide Bac7 by deep mutational scanning” (BMC Biology, 2022).

system: Escherichia coli TOP10; experiment: shrunken log2 fold change of peptide-encoding DNA abundance (4.5 h post-induction vs induction); higher = less antimicrobial activity (less host growth inhibition); conditions: time post-induction: 4.5 h; library: site-saturation at positions 5, 18, 19, 20
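Also: peptides expressed intracellularly from a pBAD plasmid library in pooled LB shake-flask culture, induced with 0.3% L-arabinose, DNA abundance read by NGS, three biological replicates, DESeq2 with apeglm shrinkage.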

Question: With RRIRNRPPRLPRPRPRPDDEPRP as the sequence, how does the “shrunken log2 fold change” value read?
Answer: -0.00101

Question: Which “shrunken log2 fold change” value does the source give for RRIRERPPRLPRPRPRPTYGPRP here?
Answer: 0.158

Question: Which “shrunken log2 fold change” value does the source give for RRIRQRPPRLPRPRPRPVGCPRP here?
Answer: 0.23

Question: How did the “shrunken log2 fold change” value turn out when RRIRKRPPRLPRPRPRPHWRPRP was run?
Answer: 0.3

Question: RRIRPRPPRLPRPRPRPAFPPRP was tested. Which “shrunken log2 fold change” value did it give?
Answer: 0.409

Question: For RRIRKRPPRLPRPRPRPGLMPRP, which “shrunken log2 fold change” value is on record?
Answer: 0.343

Question: How did the “shrunken log2 fold change” value turn out when RRIRHRPPRLPRPRPRPQMFPRP was run?
Answer: -0.0824

Question: RRIRSRPPRLPRPRPRPIVYPRP was tested. Which “shrunken log2 fold change” value did it give?
Answer: -0.255

Question: Which “shrunken log2 fold change” value does the source give for RRIRHRPPRLPRPRPRPANKPRP here?
Answer: -0.291

Question: Which “shrunken log2 fold change” value does the source give for RRIRYRPPRLPRPRPRPIFGPRP here?
Answer: -0.281

Question: How did the “shrunken log2 fold change” value turn out when RRIRKRPPRLPRPRPRPHIDPRP was run?
Answer: 0.0232

Question: Which “shrunken log2 fold change” value does the source give for RRIRIRPPRLPRPRPRPAHLPRP here?
Answer: 0.117

Question: With RRIRLRPPRLPRPRPRPFNRPRP as the sequence, how does the “shrunken log2 fold change” value read?
Answer: -0.00257

Question: Which “shrunken log2 fold change” value does the source give for RRIRIRPPRLPRPRPRPRAPPRP here?
Answer: 0.347

Question: For RRIRDRPPRLPRPRPRPMKAPRP, which “shrunken log2 fold change” value is on record?
Answer: 0.0349

Question: Which “shrunken log2 fold change” value does the source give for RRIRWRPPRLPRPRPRPLSSPRP here?
Answer: -0.0482

Question: For RRIRCRPPRLPRPRPRPTTCPRP, which “shrunken log2 fold change” value is on record?
Answer: -0.293

Question: For RRIRRRPPRLPRPRPRPMNIPRP, which “shrunken log2 fold change” value is on record?
Answer: -0.267

Question: How did the “shrunken log2 fold change” value turn out when RRIRDRPPRLPRPRPRPRATPRP was run?
Answer: 0.614

Question: With RRIRLRPPRLPRPRPRPLNCPRP as the sequence, how does the “shrunken log2 fold change” value read?
Answer: -0.156

Question: With RRIRRRPPRLPRPRPRPVQCPRP as the sequence, how does the “shrunken log2 fold change” value read?
Answer: -0.138

Question: With RRIRARPPRLPRPRPRPYWVPRP as the sequence, how does the “shrunken log2 fold change” value read?
Answer: -0.57

Question: With RRIRWRPPRLPRPRPRPHTPPRP as the sequence, how does the “shrunken log2 fold change” value read?
Answer: 0.0133

Question: How did the “shrunken log2 fold change” value turn out when RRIRLRPPRLPRPRPRPDVTPRP was run?
Answer: -0.0876

Question: With RRIRWRPPRLPRPRPRPATNPRP as the sequence, how does the “shrunken log2 fold change” value read?
Answer: 0.317

Question: With RRIRERPPRLPRPRPRPKGGPRP as the sequence, how does the “shrunken log2 fold change” value read?
Answer: -0.0194

Question: Which “shrunken log2 fold change” value does the source give for RRIRWRPPRLPRPRPRPDMSPRP here?
Answer: -0.121

Question: How did the “shrunken log2 fold change” value turn out when RRIRARPPRLPRPRPRPSQTPRP was run?
Answer: 0.416

Question: Which “shrunken log2 fold change” value does the source give for RRIRVRPPRLPRPRPRPACRPRP here?
Answer: -0.132

Question: With RRIRHRPPRLPRPRPRPDVFPRP as the sequence, how does the “shrunken log2 fold change” value read?
Answer: -0.37

Question: With RRIRYRPPRLPRPRPRPAEPPRP as the sequence, how does the “shrunken log2 fold change” value read?
Answer: 0.0314

Question: Which “shrunken log2 fold change” value does the source give for RRIRYRPPRLPRPRPRPMFNPRP here?
Answer: -1.14

Question: With RRIRLRPPRLPRPRPRPQSDPRP as the sequence, how does the “shrunken log2 fold change” value read?
Answer: -0.205

Question: RRIRLRPPRLPRPRPRPMPHPRP was tested. Which “shrunken log2 fold change” value did it give?
Answer: 0.0155

Question: For RRIRERPPRLPRPRPRPLWDPRP, which “shrunken log2 fold change” value is on record?
Answer: 0.108

Question: RRIRARPPRLPRPRPRPDAAPRP was tested. Which “shrunken log2 fold change” value did it give?
Answer: 1.48

Question: For RRIRKRPPRLPRPRPRPWQRPRP, which “shrunken log2 fold change” value is on record?
Answer: -0.0202

Question: How did the “shrunken log2 fold change” value turn out when RRIRQRPPRLPRPRPRPFTMPRP was run?
Answer: -0.141

Question: RRIRYRPPRLPRPRPRPNVKPRP was tested. Which “shrunken log2 fold change” value did it give?
Answer: -0.386

Question: With RRIRKRPPRLPRPRPRPKIAPRP as the sequence, how does the “shrunken log2 fold change” value read?
Answer: 0.35

Question: How did the “shrunken log2 fold change” value turn out when RRIRNRPPRLPRPRPRPMIIPRP was run?
Answer: 0.0546

Question: With RRIRWRPPRLPRPRPRPNAHPRP as the sequence, how does the “shrunken log2 fold change” value read?
Answer: 0.0415

Question: Which “shrunken log2 fold change” value does the source give for RRIRWRPPRLPRPRPRPSSEPRP here?
Answer: 0.0908

Question: For RRIRMRPPRLPRPRPRPLHTPRP, which “shrunken log2 fold change” value is on record?
Answer: 2.66

Question: With RRIRARPPRLPRPRPRPTICPRP as the sequence, how does the “shrunken log2 fold change” value read?
Answer: 0.144

Question: For RRIRMRPPRLPRPRPRPETNPRP, which “shrunken log2 fold change” value is on record?
Answer: 2.42

Question: Which “shrunken log2 fold change” value does the source give for RRIRIRPPRLPRPRPRPWSLPRP here?
Answer: -0.449

Question: Which “shrunken log2 fold change” value does the source give for RRIRVRPPRLPRPRPRPDQEPRP here?
Answer: -0.00136

Question: With RRIRERPPRLPRPRPRPSHCPRP as the sequence, how does the “shrunken log2 fold change” value read?
Answer: 0.0392

Question: How did the “shrunken log2 fold change” value turn out when RRIRCRPPRLPRPRPRPRPTPRP was run?
Answer: 0.808

Question: With RRIRGRPPRLPRPRPRPLSHPRP as the sequence, how does the “shrunken log2 fold change” value read?
Answer: 0.557

Question: For RRIRVRPPRLPRPRPRPMAGPRP, which “shrunken log2 fold change” value is on record?
Answer: -0.00674

Question: How did the “shrunken log2 fold change” value turn out when RRIRLRPPRLPRPRPRPHYIPRP was run?
Answer: -0.615

Question: RRIRSRPPRLPRPRPRPIWTPRP was tested. Which “shrunken log2 fold change” value did it give?
Answer: -0.254

Question: Which “shrunken log2 fold change” value does the source give for RRIRNRPPRLPRPRPRPYADPRP here?
Answer: -0.161

Question: With RRIRERPPRLPRPRPRPCVLPRP as the sequence, how does the “shrunken log2 fold change” value read?
Answer: 0.0248

Question: RRIRTRPPRLPRPRPRPREMPRP was tested. Which “shrunken log2 fold change” value did it give?
Answer: 0.101

Question: Which “shrunken log2 fold change” value does the source give for RRIRWRPPRLPRPRPRPIRIPRP here?
Answer: -0.324

Question: RRIRGRPPRLPRPRPRPSKFPRP was tested. Which “shrunken log2 fold change” value did it give?
Answer: 0.0363

Question: RRIRPRPPRLPRPRPRPRQSPRP was tested. Which “shrunken log2 fold change” value did it give?
Answer: 0.0298

Question: With RRIRCRPPRLPRPRPRPNEIPRP as the sequence, how does the “shrunken log2 fold change” value read?
Answer: -0.0995

Question: RRIRTRPPRLPRPRPRPYAKPRP was tested. Which “shrunken log2 fold change” value did it give?
Answer: -0.0117

Question: For RRIRVRPPRLPRPRPRPDMMPRP, which “shrunken log2 fold change” value is on record?
Answer: 0.0644

Question: RRIRVRPPRLPRPRPRPSYVPRP was tested. Which “shrunken log2 fold change” value did it give?
Answer: -0.66

Question: How did the “shrunken log2 fold change” value turn out when RRIRMRPPRLPRPRPRPGFTPRP was run?
Answer: 0.00309

Question: RRIRIRPPRLPRPRPRPDINPRP was tested. Which “shrunken log2 fold change” value did it give?
Answer: -0.0484

Question: RRIRTRPPRLPRPRPRPNSFPRP was tested. Which “shrunken log2 fold change” value did it give?
Answer: -0.00453

Question: RRIRDRPPRLPRPRPRPKVEPRP was tested. Which “shrunken log2 fold change” value did it give?
Answer: 0.109

Question: How did the “shrunken log2 fold change” value turn out when RRIRIRPPRLPRPRPRPVIWPRP was run?
Answer: 0.204

Question: Which “shrunken log2 fold change” value does the source give for RRIRSRPPRLPRPRPRPQKGPRP here?
Answer: -0.0456

Question: With RRIRSRPPRLPRPRPRPNGFPRP as the sequence, how does the “shrunken log2 fold change” value read?
Answer: -0.0748

Question: For RRIRIRPPRLPRPRPRPVTNPRP, which “shrunken log2 fold change” value is on record?
Answer: -0.208

Question: RRIRFRPPRLPRPRPRPIYEPRP was tested. Which “shrunken log2 fold change” value did it give?
Answer: -0.632

Question: With RRIRQRPPRLPRPRPRPPDQPRP as the sequence, how does the “shrunken log2 fold change” value read?
Answer: 1.82

Question: RRIRCRPPRLPRPRPRPDPGPRP was tested. Which “shrunken log2 fold change” value did it give?
Answer: 0.112
